Results as given in patent publication US20200399314A1 (MEDIKINE, published 2020).
Bridge positions count the residues as written; N and C are the ends. Ends that are not written are not given here.

T1: human IL-2Rα subunit (human, UniProt P01589 22-213, limits assumed)
T1 construct: also called CD25
T1 sequence (looked up): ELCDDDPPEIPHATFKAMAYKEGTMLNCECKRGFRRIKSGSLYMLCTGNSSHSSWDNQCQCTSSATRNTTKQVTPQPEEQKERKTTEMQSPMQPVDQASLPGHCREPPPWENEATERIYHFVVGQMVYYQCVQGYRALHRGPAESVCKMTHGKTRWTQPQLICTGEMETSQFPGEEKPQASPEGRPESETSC

B1: SEQ ID NO 247 (peptide)
peptide: EWECRFLPGRRGCSLF
B2: SEQ ID NO 254 (peptide)
peptide: RCLDLGGSVGLVCF
B3: SEQ ID NO 227 (peptide)
peptide: DCLDLRGTVGMVCQ
B4: SEQ ID NO 229 (peptide)
peptide: SCMDLKGSVGWVCD
B5: SEQ ID NO 217 (peptide)
peptide: ATCHLLAPGVDNTCIF
B6: SEQ ID NO 246 (peptide)
peptide: GCSLMWQDGWWVCI
B7: SEQ ID NO 2 (peptide)
peptide: LDLTYDELLACT
B8: SEQ ID NO 222 (peptide)
peptide: TDCQETWPGDRPWCHI
B9: SEQ ID NO 242 (peptide)
peptide: HVICSVNGGCRG
B10: SEQ ID NO 248 (peptide)
peptide: KGCTLQNPGSGWVCLF
B11: SEQ ID NO 257 (peptide)
peptide: CVLREGAEGWECVWR
B12: SEQ ID NO 245 (peptide)
peptide: GGCSLVWADSWVCIF
B13: SEQ ID NO 232 (peptide)
peptide: WCWEPHDQYYVRCP
B14: SEQ ID NO 223 (peptide)
peptide: VKCFMSTPGQIAYCTT
B15: SEQ ID NO 221 (peptide)
peptide: RDCFILEPGTSVYCDL
B16: SEQ ID NO 233 (peptide)
peptide: YCHDFKGTVGTLCI
modifications: disulfide 2-13 (inferred)
B17: SEQ ID NO 230 (peptide)
peptide: TCESLAKMYEVECN
B18: SEQ ID NO 240 (peptide)
peptide: FLPWPVYFSQVLGGG
B19: SEQ ID NO 219 (peptide)
peptide: QLCPWSDPGSWGPCPL
B20: SEQ ID NO 249 (peptide)
peptide: TCRLKRSGPNSWECI
B21: SEQ ID NO 213 (peptide)
peptide: VYCRREKPGGEMHCRS
B22: SEQ ID NO 251 (peptide)
peptide: AVSCNSWRCIPW
B23: SEQ ID NO 24 (peptide)
peptide: FVHCTLLGCWSG
B24: SEQ ID NO 22 (peptide)
peptide: VVLCTPKGCRSA
B25: SEQ ID NO 23 (peptide)
peptide: YVMCSAFGCKSI
B26: SEQ ID NO 231 (peptide)
peptide: TCESLARMYNENCI
B27: SEQ ID NO 244 (peptide)
peptide: IRCRYEKQSGICLF
B28: SEQ ID NO 237 (peptide)
peptide: WCIGQPLFRQGSCK
B29: SEQ ID NO 241 (peptide)
peptide: YVMCSAFGCKSI
B30: SEQ ID NO 234 (peptide)
peptide: GCQLVWQDDSYMCFY
B31: SEQ ID NO 228 (peptide)
peptide: PCQRLAEYYSQQCL
modifications: disulfide 2-13 (inferred)
B32: SEQ ID NO 256 (peptide)
peptide: VRCRQNEPGGAYWCSS
B33: SEQ ID NO 59 (peptide)
peptide: RRFCLRSEPTACWIV
B34: SEQ ID NO 66 (peptide)
peptide: RRFCLRSEPTACWTV
modifications: disulfide 4-12 (inferred)
B35: SEQ ID NO 63 (peptide)
peptide: RRFCLRSDPTACWIV
B36: SEQ ID NO 62 (peptide)
peptide: RRFCLRSEPTACWDV
B37: SEQ ID NO 65 (peptide)
peptide: RRFCLRSEPMACWTV
modifications: disulfide 4-12 (inferred)
B38: SEQ ID NO 243 (peptide)
peptide: IRFCLRSEPTACWIV
B39: SEQ ID NO 68 (peptide)
peptide: RRFCLRSEPTACWYV
B40: SEQ ID NO 61 (peptide)
peptide: MRFCLRSEPTACWTV
B41: SEQ ID NO 64 (peptide)
peptide: KRFCLRSEPTACWTV
B42: SEQ ID NO 54 (peptide)
peptide: IRFCLRSEPTACWIV
B43: SEQ ID NO 220 (peptide)
peptide: RDCAGMEPGTSVFCDN
B44: SEQ ID NO 253 (peptide)
peptide: FVHCSLMGCWCG
B45: SEQ ID NO 218 (peptide)
peptide: HGCTLTKPGAEWVCSF
B46: SEQ ID NO 239 (peptide)
peptide: WDQFQLGWEAGVAA
B47: SEQ ID NO 21 (peptide)
peptide: LVFCGKNGCHSG
B48: SEQ ID NO 238 (peptide)
peptide: WCVGQPLYRLGSCK
modifications: disulfide 2-13 (inferred)
B49: SEQ ID NO 255 (peptide)
peptide: VCFNFRGTVGRHCW
B50: SEQ ID NO 250 (peptide)
peptide: WCIGQPLFRQGSCK
B51: SEQ ID NO 252 (peptide)
peptide: AVCCDGNSCRRC
B52: SEQ ID NO 224 (peptide)
peptide: VKCYRNSPGVEAYCVG
modifications: disulfide 3-14 (inferred)

Each binder was assayed against T1, human IL-2Rα subunit.

Row | Binder | IC50 [µM]
1 | B1 | < 100
2 | B2 | < 100
3 | B3 | < 100
4 | B4 | < 100
5 | B5 | < 100
6 | B6 | < 100
7 | B7 | < 100
8 | B8 | < 100
9 | B9 | < 100
10 | B10 | < 100
11 | B11 | < 100
12 | B12 | < 100
13 | B13 | < 100
14 | B14 | < 100
15 | B15 | < 100
16 | B16 | < 100
17 | B17 | < 100
18 | B18 | < 100
19 | B19 | < 100
20 | B20 | < 100
21 | B21 | < 100
22 | B22 | < 100
23 | B23 | < 100
24 | B24 | < 100
25 | B25 | < 100
26 | B26 | < 100

Row | Binder | IC50 [µM]
27 | B27 | < 100
28 | B28 | < 100
29 | B29 | < 100
30 | B30 | < 100
31 | B31 | < 100
32 | B32 | < 100
33 | B33 | < 100
34 | B34 | < 100
35 | B35 | < 100
36 | B36 | < 100
37 | B37 | < 100
38 | B38 | < 100
39 | B39 | < 100
40 | B40 | < 100
41 | B41 | < 100
42 | B42 | < 100
43 | B43 | < 100
44 | B44 | < 100
45 | B45 | < 100
46 | B46 | < 100
47 | B47 | < 100
48 | B48 | < 100
49 | B49 | < 100
50 | B50 | < 100
51 | B51 | < 100
52 | B52 | < 100
